Series [1] can be described thus: folding stability dG unfold from trypsin proteolysis; higher = more stable. In outline: (§1)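 Mini-proteins designed to be under 80 residues and free of cysteine were carried in a PA-tagged cDNA display construct and digested with trypsin and with chymotrypsin. Each protease was applied at 11 threefold-diluted concentrations, alongside a no-protease condition, before sequencing. K50 came from Bayesian fitting of the sequencing counts, and unfolding free energy was obtained by comparing it with a sequence-predicted unfolded-state K50 and a shared folded-state K50, for each protease separately or for both together. Designs were retained only if their AlphaFold2 dimer inter-PAE exceeded 15.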

Series [2] can be described thus: folding stability dG unfold from chymotrypsin proteolysis; higher = more stable. In outline: as §1
The nature of series [3]: folding stability dG unfold (combined trypsin and chymotrypsin); higher = more stable. In outline: as §1

± gives the half width of the 95% confidence interval.

The source of these data is the supplement of paper PMC12764529.

On to “SAGGSAGSMSPEEVAERIRQEALARDPNWTVEVTPLPGPRPVLRLEIYRVDPNSDSVTPVSTLVVGSAGGSA [r15_682_JUSTAS]”, for which the “folding stability dG unfold” value in series [1] is 0.857 ± 0.018 kcal/mol; in series [2], 0.516 ± 0.075 kcal/mol; in series [3], 0.77 ± 0.086 kcal/mol.
As to “SAGGSAIFVVKIEPPNGNPITFMFWFKTPEEAESQVEEIAEQLPPDWKVEVEYIPAEDLKNGKPFFSAGGSA [r15_469_TrROS]”, the “folding stability dG unfold” value worked out at 2.13 ± 0.045 kcal/mol in series [1], 2.13 ± 0.043 kcal/mol in series [2] and 2.2 ± 0.068 kcal/mol in series [3].
Regarding “SAGGSAIIIPIKSAEEILDQLENNPPGRPIHVWAPDGYWIKIEIDPGKGPKIKITEIYPMPPEEAKSAGGSA [r15_577_TrROS]”, the “folding stability dG unfold” value was 0.741 ± 0.026 kcal/mol in series [1], 0.984 ± 0.062 kcal/mol in series [2] and 0.896 ± 0.09 kcal/mol in series [3].
Consider “SAGGSAIKIIPNGDGIYIKIWFNNQPHPIPIESPEDAEEQVKSILDKFQKRNGMDIPEDMKVEIYPSAGGSA [r15_496_TrROS]”, for which the “folding stability dG unfold” value in series [1] is 0.419 ± 0.054 kcal/mol; in series [2] it was 1.12 ± 0.14 kcal/mol; in series [3], 0.994 ± 0.2 kcal/mol.
The matching figures for “SAGGSAIKLPPGEEYTIIMRNPQNGRPFKVPIKRVDPGQIQIEIENPKNGEKQKFTIPANDIEIVKSAGGSA [r15_381_TrROS]”: 0.0718 ± 0.074 kcal/mol, -0.896 ± 0.8 kcal/mol and -0.194 ± 0.16 kcal/mol.
With “SAGGSAIKLPPGVKIEYHMHPDGYMTITIEYPNGRPIEIPMRMDPNGPREMTPDQIRDFIKELLKNSAGGSA [r15_780_TrROS]”, the entries for the “folding stability dG unfold” value in series [1], in series [2] and in series [3] were 2.42 ± 0.038 kcal/mol, 2.33 ± 0.026 kcal/mol and 2.4 ± 0.049 kcal/mol, respectively.
“SAGGSAIWIPVDEIRDLLKEFGIDVTVERHPNDGWVEIEIKMRRPNGKKHPIKIWVHPDGYIRIEPSAGGSA [r15_1051_TrROS]”: the “folding stability dG unfold” value worked out at 3.23 ± 0.16 kcal/mol in series [1], 4.42 ± 0.15 kcal/mol in series [2] and 4.03 ± 0.18 kcal/mol in series [3].
On to “SAGGSAKATLPEGVKIETKTFKLDGRKYMPFVFEAPDDDWVWVNEMRMDPNGKMEMETIWIPPDAVSAGGSA [r15_986_TrROS]”, for which the “folding stability dG unfold” value came to 0.368 ± 0.32 kcal/mol in series [1], 0.384 ± 0.44 kcal/mol in series [2] and 0.375 ± 0.23 kcal/mol in series [3].
Regarding “SAGGSAKEVKIKFTRNPDGTLTMEITFEDGYVIRKTFTVKNGKLTEKVEVFPVKLDPETGKLVLLPSAGGSA [r15_746_TrROS_Hall]”, the “folding stability dG unfold” value is 2.52 ± 0.078 kcal/mol in series [1], 2.98 ± 0.033 kcal/mol in series [2] and 2.84 ± 0.087 kcal/mol in series [3].
In the case of “SAGGSAKGLKVTFSHPDVEILSVKSYPGLGLAEVEFRYGDKLYRALVRFEPDDGGIAEATVEPVPGSAGGSA [r15_297_TrMRF]”, the results for the “folding stability dG unfold” value in series [1], in series [2] and in series [3] were 1.58 ± 0.024 kcal/mol, 2.844 ± 0.026 kcal/mol and 2.55 ± 0.079 kcal/mol, respectively.
“SAGGSAKIEIPIMIPMPPGQEFDLKIRIPNLWKIKIERIYVSPDPGWIMFRIEIEPVAPPNDPEQMSAGGSA [r15_994_TrROS]”: the “folding stability dG unfold” value turned out to be 2.92 ± 0.17 kcal/mol in series [1], 3.64 ± 0.071 kcal/mol in series [2] and 3.34 ± 0.21 kcal/mol in series [3].
As to “SAGGSAKIKIPKSYTAEILDASYDPETKTVTVKIKLFGKPATATIYPDGTVEIDLPNGKKITIPVGSAGGSA [r15_111_TrMRF]”, the “folding stability dG unfold” value in series [1] came out at 1.47 ± 0.083 kcal/mol; in series [2] it was 2.62 ± 0.04 kcal/mol; in series [3], 2.27 ± 0.099 kcal/mol.
For the sequence “SAGGSAKIPVMFMIESPEQIIELVDEFAPPGHEVKVKIDNVEPFPMREDGEERPYYMFRVTIEFPPSAGGSA [r15_95_TrROS]”, the entries for the “folding stability dG unfold” value in series [1], in series [2] and in series [3] were 1.64 ± 0.07 kcal/mol, 1.84 ± 0.16 kcal/mol and 1.78 ± 0.14 kcal/mol, respectively.
As to “SAGGSAKITIEYDPETGTITIKVELTNEDNGKKVTKEYEIKVDGKLIRIKIDANTGEIVEIEVLPPSAGGSA [r2_331_TrROS_Hall]”, the “folding stability dG unfold” value was determined as 3.52 ± 0.17 kcal/mol in series [1], 3.38 ± 0.13 kcal/mol in series [2] and 3.55 ± 0.15 kcal/mol in series [3].
As for “SAGGSAKITIHMAPDGMFQIEIKTGGKERTYHVDMPLEQIKDELEDEGLEIKDIEITPFPPDPEDFSAGGSA [r15_576_TrROS]”, the “folding stability dG unfold” value in series [1] is -1.13 ± 0.93 kcal/mol; in series [2], -0.146 ± 0.095 kcal/mol; in series [3], -0.409 ± 0.16 kcal/mol.
The matching figures for “SAGGSAKITLWIWMPPGNPDKMAEEIADYLAERHGWTVKIKDVQIERDPEDDQVWIPVKIEIQPPPSAGGSA [r15_70_TrROS]”: 1.98 ± 0.14 kcal/mol, 1.39 ± 0.31 kcal/mol and 1.91 ± 0.39 kcal/mol.
In the case of “SAGGSAKKDGTITIKIPVKAPKDKNGKVFKPSAEAIKAKFGELGFDFEIEEIKESETYLEIKIKVKSAGGSA [r15_225_TrMRF]”, the “folding stability dG unfold” value in series [1] worked out at 0.51 ± 0.086 kcal/mol; in series [2], 1.78 ± 0.093 kcal/mol; in series [3], 1.53 ± 0.21 kcal/mol.
The matching figures for “SAGGSAKKEVYKINIKVYNKNGKKVKEIKIELPEELKGKTIEEIAKELAKKLNIEKIEVKIEPVKPSAGGSA [r15_333_TrROS_Hall]”: 1.61 ± 0.18 kcal/mol, 3.19 ± 0.1 kcal/mol and 2.78 ± 0.21 kcal/mol.
For the sequence “SAGGSAKKPEVTVEIEIVLPKEELEELLEALRKLPGLKVEVEEVEVREDGYVRVKLRITLPPGVKPSAGGSA [r15_441_TrROS_Hall]”, the “folding stability dG unfold” value in series [1] turned out to be 2.39 ± 0.062 kcal/mol; in series [2] it was 3.48 ± 0.046 kcal/mol; in series [3], 3.19 ± 0.12 kcal/mol.
The matching figures for “SAGGSAKKPKPGRLFLRYEEPEKGEVVEAVLTVYPNNVVELEVRRPDGKPVPLEKALKLLKELGLLSAGGSA [r15_872_TrMRF]”: 1.54 ± 0.046 kcal/mol, 2.12 ± 0.1 kcal/mol and 1.86 ± 0.14 kcal/mol.
Regarding “SAGGSAKKTYIIKIPVKEIVVKDKKTGKYKPISAEELAKLLEEKTGLKVEIVEVKDGYIVIKVKEKSAGGSA [r15_55_TrROS_Hall]”, the “folding stability dG unfold” value amounted to 2.26 ± 0.091 kcal/mol in series [1], 2.96 ± 0.045 kcal/mol in series [2] and 2.74 ± 0.13 kcal/mol in series [3].
Turning to “SAGGSAKLSAEEIAKLLKKLFPEVKEIKVKVEVNGKLYEVKIKVEKVKKKEKKKVEGMSEEEKKKLSAGGSA [r15_156_TrROS_Hall]”, the “folding stability dG unfold” value is 2.06 ± 0.19 kcal/mol in series [1], 2.33 ± 0.1 kcal/mol in series [2] and 2.35 ± 0.32 kcal/mol in series [3].
As for “SAGGSAKLTAEEIKKLPPNARIYFDKETGRVFIEVDGKLVVIEIDKETKEVKVVKVFPSKEALEKASAGGSA [r15_6_TrROS_Hall]”, the figures for the “folding stability dG unfold” value in series [1], in series [2] and in series [3] were 1.57 ± 0.054 kcal/mol, 1.86 ± 0.1 kcal/mol and 1.82 ± 0.12 kcal/mol, respectively.
The matching figures for “SAGGSAKLTIELVISDMSPEDAEIAAENIRIELIKKGIPEEEIENVDIKVIVAPVYLDEDNNLILGSAGGSA [r15_684_TrMRF]”: 0.533 ± 0.019 kcal/mol, 0.657 ± 0.035 kcal/mol and 0.694 ± 0.058 kcal/mol.
For the sequence “SAGGSAKMTLIIKVSPEMTKEELEELARKLAEELNVKVEIEYDEETGLATVTIEKDGKKIEIIVERSAGGSA [r15_168_TrROS_Hall]”, the “folding stability dG unfold” value was 1.98 ± 0.083 kcal/mol in series [1], 2.74 ± 0.094 kcal/mol in series [2] and 2.49 ± 0.12 kcal/mol in series [3].
In the case of “SAGGSAKMVLVKIKVEGMSVEEVKKLLEEAGAKVVKIDEEKKVIIVEVSPEKAEELAKKLGFEVEVSAGGSA [r15_731_TrROS_Hall]”, the “folding stability dG unfold” value came to 3.36 ± 0.14 kcal/mol in series [1], 3.42 ± 0.11 kcal/mol in series [2] and 3.45 ± 0.086 kcal/mol in series [3].
